The source of these data is article PMC2818375.

The assay concerns the target M2 muscarinic receptor fused to CFP (M2R-CFP) (UniProt P08172). The assay is described as follows: FRET or BRET. (In general: In BRET a luciferase serves as donor, and the signal depends on an acceptor being close.)
Sequence of UniProt P08172 (P08172 whole entry, the tested form may be a part): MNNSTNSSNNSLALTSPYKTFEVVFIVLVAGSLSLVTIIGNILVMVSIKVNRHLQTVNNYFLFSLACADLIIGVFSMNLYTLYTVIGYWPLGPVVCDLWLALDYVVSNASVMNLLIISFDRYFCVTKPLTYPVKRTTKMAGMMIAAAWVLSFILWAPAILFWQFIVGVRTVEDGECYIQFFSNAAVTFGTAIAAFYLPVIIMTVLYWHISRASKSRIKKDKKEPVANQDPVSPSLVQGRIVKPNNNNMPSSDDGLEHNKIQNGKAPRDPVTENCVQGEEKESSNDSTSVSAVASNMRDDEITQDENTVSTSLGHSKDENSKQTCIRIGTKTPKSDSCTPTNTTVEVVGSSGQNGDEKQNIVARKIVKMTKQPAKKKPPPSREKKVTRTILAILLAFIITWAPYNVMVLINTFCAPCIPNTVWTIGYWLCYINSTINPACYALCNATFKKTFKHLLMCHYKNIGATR

Turning to “GBR1R2-YFP chimera (N-terminal and transmembrane domains of GBR1, C-terminal domain of GBR2) (receptor)”, the %FRET came out at 6 %FRET.
